From the DeepSol protein solubility set

Assay: soluble on expression in E. coli; label from the status in PepcDB or PDB records

Row | Sequence | soluble on expression in E. coli
1 | MAHHHHHHMSVIGVFSKGRATGHASVMSVLRYVPRARVPWQPSRFGRENLADDDMAQLWGTGRYRTGPGNYNSGYSTKKTHALEDSTVSIIPKHELEKFMPDISLGSKALVTPVSLMSARNGHRVTHDLIHSYDPYIGRLQKPAVVDHDNITVEDPNRVGLNAATLDCRSRIYRWLRRGPFFQEDNYFRRSTKLQRNGPVPVSVHEVPLMQRIIRLARRGHLKAACEEYRRVTSVPPVDVYRALTAACVPGAKLADAIAIFEDGHSRLFYVARDGEVLHNMLRCAIRAKHRVRVMWVYNVMVGRHYENVVVRAEVDVIWRYRIASLALEYLLDSNAGEEARTVYDYLVENELVDCDLHVRLGHVMQQALKEGKTVHVQQDALDGMALSQNVVAVAPQVAVAVYARYLETMQEGAAWTDARGLPLTDPAKTGADTNGAAAVAWLKAAFPDIDPVAVLRLARFRRSSKDLMAKDRPVYVQRAAQWVELLSSAHQTREEAPLTYLRKSRPSMANPNVRVAWLPERQRAHALLASDEGFKFAYAGPHTRFVEETFAYGENTLQSRYLAQQPVHTEVTPSVALGAAAVAAGMSSGSALPRLPGSSAAPQILHASVLLDGSLNGSSGSGTSTLRSGRNESAKAAASPTAGISSRPSSASSSAGLDDTHF | not soluble
2 | MGSDKIHHHHHHMMRENLAYLEPPLRIAILSQGPQLYSTKRLVEAAQARGHDVHIINPLKCYMNINMRQPSIHIAGKELPQFDAVIPRIGASITFYGSAVLRQFEMMGVYTINDSVGISRSRDKLRSMQLLSRKGIGLPITGFANKPSDIPDLIDMVGGAPLVVKLLEGTQGIGVVLAETRKAAESVLEAFMGLKANIMVQEYIKEANGADIRCFVLGDKVIAAMKRQAKAGEFRSNLHRGGTATLVKLSPEERTTAIRAAKTMGLSLAGVDLLRSNHGPVVMEVNSSPGLEGIEAATQKDVANAIIEFIEKNANKAKS | not soluble
3 | MCHEEVFSCCRTRTFHFLRSYGHDGWRNDGRNDERKADVSAHVLLPLHDAYDADDVHDADDGYALHGYEPHDGNDEHADDGSGNHEDCNRTQAKVYEGTYGKTPEENEKVIFSSFFPLFLEE | not soluble
4 | MADVKEKINLLDVIPFRSENITAEKGSDGTVTIAFPRFKYEWMRRFLLPKGMSADIHVRLEDHGTAVWELIDGKRTVRRIIEELAEHFNYEENYESRITAYITQLQKDGFVKLVIEN | not soluble
5 | MELYELAQAAGGGIDPDVFKILVDLLKLNVAPLAVFQMLKSMCAGQRLASEPQDPAAVSLPTSSVPETRGRDKGSAALGGVLALAERSNHEGSSQRMPRQPSATRLPKGGGPGKSPTQGST | soluble
6 | MAIRRLRTIFVSLLLGLAASATQAADRSDRNVTAKLEGRFEWDFALFDNDTRGTPNRSNNEIRRFWLDVTGKVFAFDYTIEGNFTNLQDKFKGKSIEMGDVYLRHDFGNTGTLTLGQFKQHFSLDDRTSPDYGQFLERSGGANTLAPEYHKGVSWKATHQNTTWWVSAYSLDSISLSNVNGRGLGGRGTWSPDTPEGDVLHLGLSLAHQRYDHPGSDGMTALSIRPLPAGHLSDNSGITLAHFANGRDTKVNRWALEYAQVRGPLSWQSEYIGGAFNDGMQRATVQSAYGFVSWFVTGESRTYDRKTGRFTRIKTLHNPRGALELALRYDRMWGNQHHNNQPNFLNASTASCTLGVNWYIKPNLRLMLNLIDSRNRDRLAGTVLDHTRALTGRLHYDF | not soluble
7 | MGSDKIHHHHHHMPNTFEHLQAAHCENGVTTNLLRNVGVSKMTEPLAFGIGSGLFFIYIPLMKINGGPAIAYRTMPGLIFKRTAQSLGIDVVRKTFRSTIKAQEFLDACIKAGQPVGCQVGVYFLSYFPKEYRFHFNAHNLIVYGKEGDNYLVSDPVMETTNILSTYELERVRFAKGALAPKGQIYFPKPNHEPVSDDKIRKAIVTGVKRNIRDMLHIPGPIAGVSGIKYTGNKIKNWRDKLGIEKAGLYLAQLVRMQEEIGTGGGGFRFIYGAFLQQAHAFHNDDQLLEISKSFTQSGDLWRSAAIQAAGIYKGRITSQADFNVMGDYLLEISELEKKAFKELTKIKWQK | not soluble
8 | MSLKVFYMNVVIITGAASGIGHALSQVCLSNGKTIVMVDKNQDKLHTEAQSFMTKFSPEHVICFACDVTQPSEVERLAEYSCKQLGQVDWIFNNAGIIGNLLPAWELQENDINQVMQVNLHGMLNIIRSFMPYLFKQNFRSHIINMASLYALCTGSQMAAYSMSKHAVLALSESLYFDLNRLKKPVDVSVVFPSFTDTSLLASSGKLNHSPIHNQLNNLLAHSRPAIEVAEHIVREVEQKRFYILPDKEVKGYCEDRTKAILLQENPHRNSVEQLMCSLLKRQSSEANEGHHHHHH | soluble
9 | MGSDKIHHHHHHMRKWLLGVTAALALTALAACGTESSSTSGEEDQDVTIGYFPNLDHAAAIVGKEKGFFAEELGEEKVEFTHFPNGNDFIEALSTGSIDIGYVGPGPAINYYLTGGDVVVLGSAANGATLIVARDGSGIDTLDDFDGKSFCTPGNGCTHNVQLEIMLKELGLESNRVGGTVEHQSRIAPSNMVAMFEQGQIDAAAAPEPWGTYLVEELGAHVVAEWNDVFLGEELASVVVVTTREFLENHPEQVEAFLRAHVKSVEFAQEDVDATLETVNDALFDLTQNRLPEDVLYKAWERMAVTTDTYPDALQAWADASYELKFMDEDPNLDGFVDTSLLDSILSE | not soluble
10 | MGSDKIHHHHHHMKVLVTGHRGYIGAVLTPMLHQRDHDVTGLDSDIFRSCTFEGTLDDTPTMEEDVRDIVIDDLAGFDAVIHLAGLSNDPLGDYRPNLTQQINCEASVTLARLAKRAGVPRFLFASSCSNYGAAGSGFLTESAAFNPVTPYGISKVEVEHAVAPMADECFSPTFLRASTAYGLSPRIRFDLVLNNLTAWAFTTGQIYLKSDGSPWRPIVHVEDIARAYIAALEADRELVHNQAFNVGLTTENYQVREIADIVQAIVPNSRIEFAADAGPDTRCYRVDCNYIGRRLHAFKPQWTARRGVEQLYEAFCSVGLSLEDFEGERFKRIAHVKKLIRNGELDEDLRRVSVPTMALAV | not soluble
11 | MSLQSKEDFIEMRVPASAEYVSLIRLTLSGVFSRAGATYDDIEDAKIAVSEAVTNAVKHAYKENNNVGIINIYFEILEDKIKVVISDKGDSFDYETTKSKIGPYDKDENIDFLREGGLGLFLIESLMDEVTVYKESGVTISMTKYIKKEQVRNNGERVEISEGHHHHHH | soluble
12 | MAHHHHHHMTNLNVESGYFNDELKEEANEANFMYTNISMLIRAHRKDRNKLTLQNKKLNLIKIVGFVLAIEEKKEFIVYTVDDSTGYIKAKLLLTYSYSACNDKNEDIKVDDMVQIFGICNTVSINEDLTISISSINKVNSLNHLCHHHLLVFHNYLKFLETQKKNLALEDERAKNEEDEIAPHVPTNDNPFFNSFFY | not soluble
13 | MMNKKEARTLIKERRMNLSKEYIDVASDKIFEKLLQNEDFKNVKTVMSYMDFKNEVKTDRINTFIKNSGKILVLPKVVDKETMIVIEDKNQYIVSPFGNKEPDGEEYKGSIDVIITPGVAFDRDKNRVGFGRGYYDRFFVKQPNAKKIAIAFEKQIIDEGIETDKYDKKVDILITEDEIIKLEHHHHHH | soluble
14 | SGIGTGHTSMNKGGKDVTLLELSVEKRRWRINMETSKIILEKMQSDDVLDGNRERSNEREGRDSLSEKLKSKQNLKDEEKLRYIKTGKSIQVEGTVRAKALRWVQ | soluble
15 | MTAGLHHAAANGVRVRPFRRHPTKRYILTGAPGAGKTVLLRALETAGEVVVEEAATDVIALAQAQGVDQPWTDPGFIDTIVGLQRQRQTRAVGDRIFFDRSPVCALALARFLGHPVSALLEDELARIVREGVYQRRVFLVQGLGFITPTAARRISLDDAQAFEEVHQAAYTELGFELAPIAPGPVGDRVRRVLGAVLEHHHHHH | not soluble
16 | MPYADNGVKIYYEVEDGGEPAIVFVHGWTANMNFWREQREYFKGKHRMLFIDNRGHGKSDKPFNRSFYEFDNFVSDLHAAVKDASFDRFVLVGHSFGTMISMRYCVEHPGRVEALVLIGGGARIQSLHRYGYPIGRLFATLAYGISARIIANMAFGRKAGELRDWGLKEALENTPKHAALNTLWTLTTVDLRDIAREIEKPTLIVVGKEDALLPVSKSEELSRLIKNSKMVIVPDAGHCVMLEQPEIVNRVLEEFIHTFSAMLIRA | not soluble
17 | MAEERHHTEHIPQWKKDEIENIKELIQSHKVFGMVRIEGILATKIQKIRRDLKDVAVLKVSRNTLTERALNQLGESIPEMTRYLDNQTALIFTNESPFKLYKLLEQTKTPSPIKAGAIAPEDIIVQKGPTSFPPGPILGELQSAGIPASIDAGKVAVKETKVVCKAGEAVPQKLATMLSKLEIYPLIVGLDLRAAYDDGTIYEPELLAVDESKYFSDIIRAAQNAFNLSVNTAYPTGATIGTLLAKAYAESKSLGVNAVILEPGVMDSLLAKAHVQMTSVASEAAEKDANAVDDDLREVLGAAASAAAAATVAAPAAEEEKKEEEPEEEEEDHAEEDGMAGLGALFGLEHHHHHH | soluble
18 | KEPEMRPLGAYDTEELIPVLDYLDQQKINYKLDGNTVSVESSEYNSIKLGMVRSGVNQATEAGDDILLQDMGFGVSQRLEQERLKLSRERQLAQAIEEMKQVRKARVLLALPKHSVFVRHNQEASASVFLTLSTGANLKQQEVDSIVDMVASAVPGMKTSRITVTDQHGRLLSSGSQDPASAARRKEQELERSQEQALREKIDSVLLPILGFGNYTAQVDIQMDFSAVEQTRKRFDPNTPSTRSEYALEDYNNGNMVAGIPGALSNQPPADASIPQDVAQMKDGSVMGQGSVRKESTRNFELDTTISHERKQTGTVARQTVSVAIKDRRQVNPDTGEVTYTPMSEGEINAIRQVLIGTVGFDQSRGDLLNVLSVKFAEPETEQLVDQPIWEHPNFND | not soluble
19 | MTHVTPFSNPFLLGFETIEKTLRRIGKADETYPAYNIERLHKNDDASHIRITLAVAGFKVNNLNILLDDNQLIIHGKQTDSQNHQYLYRGIAARQFQRTFVLVEGMHVTNAELKNGLLSINLYQPKTKKQMKQIPIKVSNKS | not soluble
20 | MLAFGPVPSRRLGRSLGVNNIPAKICSYACVYCQIGKTLKMEVERRKFYEPERIYNDVSAKVKSGERIDYITFVPDGEPTLDINLGKEAEMLRDFGIKLAILTNSSLIWREDVREDLMNFDLVSLKLDAVSDDIWRKVNRPHKSLSLEKILEGMLDFRKEFKGTIITETMLINIDYGEELEKIATFLKELKPDKAYIAIPTRPPAESWVKPASEVIINKAYQLFSEALGEERVEYLIGYEGNAFAFTGNVEEDLLSITAVHPMREEAVRELLRKAGASWDVVEKMIKEGKLIELEYNGKKFYMRKLGSR | not soluble
21 | MKLRHLPLIAAIGLFSTVTLAAGYTGPGATPTTTTVKAALEAADDTPVVLQGTIVKRIKGDIYEFRDATGSMKVEIDDEDFPPMEINDKTRVKLTGEVDRDLVGREIDVEFVEVIK | not soluble
22 | MKTLQDSIIFRHGAKIKGRIVQPPMLTNSGNDGYVTQDALDYYAARSQSAGMIIVEYTTVSENGGPSRSWARDREQLTIYDDKFKPGMAKLATVIKKMGIKLYYNWSIPVEKLIISLNWVSRFMHQVR | not soluble
23 | MSLKQERQEKIEVLKEFKDDGATKFSSYYFDLKKNQILSSGSLTTSWRVIDFSEVLSYQVNRNGHLEQKHHGIARAVTGGIMAGGVGAIVGTTTGENTDYIDHLGLVINLSDGTNFEVKFLKTKTKTNSFTVKTAEGELRSLISIVQSGMNKAQEKAEQEQTKANTIKIESNADPAEEIRKFKKMADEGIISNEEFEAKKKQLLNLQEGHHHHHH | soluble
